Laboratory results: the supplement of paper PMC10567573

B1: NECAB1 (parent)
chain: FSPNSPQFNVSGPGLLEEDNQWMT

Variants of: B1
Assay: protein stability index of a GFP-peptide fusion (GPS, HEK-293T) (PSI 1-6); higher = more stable
Conditions: c terminus: a fixed tail appended
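Further: lentivirally expressed fusions sorted by FACS into six bins by GFP to DsRed ratio, PSI derived from sequencing read proportions per bin multiplied by bin number.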

Variant	protein stability index
FSPNSPQFNVSGPGDLEEDNQWMT [L15D]	3.7
FSPNSPQFNVSGPGELEEDNQWMT [L15E]	3.46
FSPNSPQFNVSGPGFLEEDNQWMT [L15F]	2.91
FSPNSPQFNVSGPGGLEEDNQWMT [L15G]	2.91
FSPNSPQFNVSGPGHLEEDNQWMT [L15H]	3.19
FSPNSPQFNVSGPGILEEDNQWMT [L15I]	2.98
FSPNSPQFNVSGPGKLEEDNQWMT [L15K]	2.97
FSPNSPQFNVSGPGMLEEDNQWMT [L15M]	3.22
FSPNSPQFNVSGPGNLEEDNQWMT [L15N]	3.27
FSPNSPQFNVSGPGPLEEDNQWMT [L15P]	2.98
FSPNSPQFNVSGPGQLEEDNQWMT [L15Q]	3.06
FSPNSPQFNVSGPGRLEEDNQWMT [L15R]	2.51
FSPNSPQFNVSGPGSLEEDNQWMT [L15S]	3.3
FSPNSPQFNVSGPGTLEEDNQWMT [L15T]	3.25
FSPNSPQFNVSGPGVLEEDNQWMT [L15V]	3.23
FSPNSPQFNVSGPGWLEEDNQWMT [L15W]	2.68
FSPNSPQFNVSGPGYLEEDNQWMT [L15Y]	3.05
FSPNSPQFNVSGPGLAEEDNQWMT [L16A]	3.29
FSPNSPQFNVSGPGLCEEDNQWMT [L16C]	3.03
FSPNSPQFNVSGPGLDEEDNQWMT [L16D]	3.94
FSPNSPQFNVSGPGLEEEDNQWMT [L16E]	4
FSPNSPQFNVSGPGLFEEDNQWMT [L16F]	2.42
FSPNSPQFNVSGPGLGEEDNQWMT [L16G]	2.73
FSPNSPQFNVSGPGLHEEDNQWMT [L16H]	3.98

Variant	protein stability index
FSPNSPQFNVSGPGLIEEDNQWMT [L16I]	2.91
FSPNSPQFNVSGPGLKEEDNQWMT [L16K]	2.94
FSPNSPQFNVSGPGLMEEDNQWMT [L16M]	2.66
FSPNSPQFNVSGPGLNEEDNQWMT [L16N]	2.97
FSPNSPQFNVSGPGLPEEDNQWMT [L16P]	3.52
FSPNSPQFNVSGPGLQEEDNQWMT [L16Q]	3.54
FSPNSPQFNVSGPGLREEDNQWMT [L16R]	3.12
FSPNSPQFNVSGPGLSEEDNQWMT [L16S]	3.23
FSPNSPQFNVSGPGLTEEDNQWMT [L16T]	3.53
FSPNSPQFNVSGPGLVEEDNQWMT [L16V]	3.18
FSPNSPQFNVSGPGLWEEDNQWMT [L16W]	2.25
FSPNSPQFNVSGPGLYEEDNQWMT [L16Y]	2.73
FSPNSPQFNVSGPGLLAEDNQWMT [E17A]	2.4
FSPNSPQFNVSGPGLLCEDNQWMT [E17C]	2.04
FSPNSPQFNVSGPGLLDEDNQWMT [E17D]	2.74
FSPNSPQFNVSGPGLLFEDNQWMT [E17F]	1.69
FSPNSPQFNVSGPGLLGEDNQWMT [E17G]	2.49
FSPNSPQFNVSGPGLLHEDNQWMT [E17H]	2.72
FSPNSPQFNVSGPGLLIEDNQWMT [E17I]	2.53
FSPNSPQFNVSGPGLLKEDNQWMT [E17K]	1.97
FSPNSPQFNVSGPGLLLEDNQWMT [E17L]	2.29
FSPNSPQFNVSGPGLLMEDNQWMT [E17M]	2.54
FSPNSPQFNVSGPGLLNEDNQWMT [E17N]	2.33
FSPNSPQFNVSGPGLLPEDNQWMT [E17P]	2.58

Variant	protein stability index
FSPNSPQFNVSGPGLLQEDNQWMT [E17Q]	3.13
FSPNSPQFNVSGPGLLREDNQWMT [E17R]	2.86
FSPNSPQFNVSGPGLLSEDNQWMT [E17S]	2.98
FSPNSPQFNVSGPGLLTEDNQWMT [E17T]	2.36
FSPNSPQFNVSGPGLLVEDNQWMT [E17V]	2.33
FSPNSPQFNVSGPGLLWEDNQWMT [E17W]	2.82
FSPNSPQFNVSGPGLLYEDNQWMT [E17Y]	2.46
FSPNSPQFNVSGPGLLEADNQWMT [E18A]	2.82
FSPNSPQFNVSGPGLLECDNQWMT [E18C]	1.89
FSPNSPQFNVSGPGLLEDDNQWMT [E18D]	2.91
FSPNSPQFNVSGPGLLEFDNQWMT [E18F]	2.61
FSPNSPQFNVSGPGLLEGDNQWMT [E18G]	2.02
FSPNSPQFNVSGPGLLEHDNQWMT [E18H]	2.39
FSPNSPQFNVSGPGLLEIDNQWMT [E18I]	2.4
FSPNSPQFNVSGPGLLEKDNQWMT [E18K]	3.2
FSPNSPQFNVSGPGLLELDNQWMT [E18L]	2.03
FSPNSPQFNVSGPGLLEMDNQWMT [E18M]	2.65
FSPNSPQFNVSGPGLLENDNQWMT [E18N]	2.83
FSPNSPQFNVSGPGLLEPDNQWMT [E18P]	1.84
FSPNSPQFNVSGPGLLEQDNQWMT [E18Q]	1.97
FSPNSPQFNVSGPGLLERDNQWMT [E18R]	2.14
FSPNSPQFNVSGPGLLESDNQWMT [E18S]	1.88
FSPNSPQFNVSGPGLLETDNQWMT [E18T]	2.23
FSPNSPQFNVSGPGLLEVDNQWMT [E18V]	2.31

Variant	protein stability index
FSPNSPQFNVSGPGLLEWDNQWMT [E18W]	2.14
FSPNSPQFNVSGPGLLEYDNQWMT [E18Y]	1.82
FSPNSPQFNVSGPGLLEEANQWMT [D19A]	2.11
FSPNSPQFNVSGPGLLEECNQWMT [D19C]	2.72
FSPNSPQFNVSGPGLLEEENQWMT [D19E]	2.78
FSPNSPQFNVSGPGLLEEFNQWMT [D19F]	2.12
FSPNSPQFNVSGPGLLEEGNQWMT [D19G]	2.33
FSPNSPQFNVSGPGLLEEHNQWMT [D19H]	2.79
FSPNSPQFNVSGPGLLEEINQWMT [D19I]	2.55
FSPNSPQFNVSGPGLLEEKNQWMT [D19K]	2.18
FSPNSPQFNVSGPGLLEELNQWMT [D19L]	2.3
FSPNSPQFNVSGPGLLEEMNQWMT [D19M]	2.57
FSPNSPQFNVSGPGLLEENNQWMT [D19N]	2.57
FSPNSPQFNVSGPGLLEEPNQWMT [D19P]	2.03
FSPNSPQFNVSGPGLLEEQNQWMT [D19Q]	2.5
FSPNSPQFNVSGPGLLEERNQWMT [D19R]	1.94
FSPNSPQFNVSGPGLLEESNQWMT [D19S]	2.33
FSPNSPQFNVSGPGLLEETNQWMT [D19T]	2.1
FSPNSPQFNVSGPGLLEEVNQWMT [D19V]	2.1
FSPNSPQFNVSGPGLLEEWNQWMT [D19W]	2.02
FSPNSPQFNVSGPGLLEEYNQWMT [D19Y]	2.44
FSPNSPQFNVSGPGLLEEDAQWMT [N20A]	3.29
